Test: label from the status in PepcDB records

Sequence | protein production
MARQTYGTTPWGAWFLDMLKAYDDSGRLSRGKTYANTGKVNSLVVNGQTAGAKVKGNYSPWYHVYFKFPPLSKTNKTAIRSILEKHPIELAGLRAGIMSPALIEALKKKKVRLIPARWNLIERDCTCPDSGDPCKHMAAVLFLLAKEIDHDPRLLFKLAGFDIDSINVPETEVFEKGGTQKLGLLQEQPVPLSLRKNETLNKAADLSSDSSVSETAHNSCELQSPLKFSLGESYLPLITNILPPEPNFSSSDFIIKLTEFYHKAVLNYGLNFYGQEKQSEKQEEKSVNPFLFARVKVNIDNIRKQKRAFPLEPKSPLTVNIKLGETHEINQTLLQAQNFYKTRNSLNEMSPSVKILFSLFALAGKLIQSSAFIPAVFTENKKLFIFWKSLSASSEIKADIFKFAASLTKDFFLPVGKWGRLYCAELLLTALLTEYAASLKFFPNKSYTKDKEIDKLFFLNEEIDISVPGKRNLDTVIYSWLSVLNYSNCGYEYRLTLEALKDDEFFLLSALVRKAKEKRIEAGDDSFALEAEAPFAELNTAAKRSKNPDDILRFPATLAAYLPALSILAIKKNVMLSREETGLFLQKSAKLLQRFGIDIVLPKSLKNILTPKPVISVKSVKGAGNIVSFLNIDDVLSYDRALMLGDTLIDIDEFKKLFLNKSGLVKFNDQFLLLDPEEVAKMLKALEKPADTKEVLQAVLSGNAVCSKPASEIIKNIFRQEEVPVPQNLNAELRPYQKQGYRWLYANIKSGFGCLLADDMGLGKTVQIISLMLSFKNSKEAESPFLVIAPASLLSNWEHEIAKFAPSLKTAVYHGAGRKFTTEADVIISTYQTMQKDIEKLKDKKVFCIILDEAQAIKNSGTKKAHAVKAIQARGRVALTGTPVENNLEDMRSIFDFFLPGYLGTADEFRKKWRIPIELHNSETEADDLKKITSPFLLRRLKTDPKVISDLPDKIITNQYCNLTPEQLAIYENLVETELHKVMGAETKIERQAYVLKLLTALKQVCNHPRAYDKETPIEMKYSGKAAVLIELLNEIISSGEKAIIFSQYVGTLDILKNIIQKELGTEPLLLHGQMPASKRKKAVEVFQTDSAYRIFLISLKAGGTGLNLTAANRVIHFDLWYNPAVEDQATDRAFRIGQTKNVFVHRLICSGTFEEKIDEMIQKKREISGMSISAGETWISKLSNEELAGLFKS | failed
MASEAVNVWSRTSLILIMLSAAILVVAVGAVMNSGLVESLQVPLWEKWVILVFLFALIIGIIGPLSGVGGGVIFVGLGMAILPFNVDFIRGAGLVAALSTSLNSAPYFTKKGLANLRIVAPLVSVSTIFSVFGGVIGLWISNSFPEGSYYVKMSLGVVLLVLLLILSRSKNVEYPPPREKKDRLSEMIDLTGGWYEPTLNRIVTYEASNLPLAMLAFSGVGFLAGMFGLGAGWANVPILNLVMGLPLKAAVASSMLILAINDSASLWVYLANGAVLPIVVVPVVLGISIGSRIGSRLAAKTKPKVIKRLVIALIALSGVVNIIQGLSGIGLLNL | failed
MASEEGQVIACHTVETWNEQLQKANESKTLVVVDFTASWCGPCRFIAPFFADLAKKLPNVLFLKVDTDELKSVASDWAIQAMPTFMFLKEGKILDKVVGAKKDELQSTIAKHLA | failed
MASFDGQGFMMVDNSWVQTKAIDVESTTDISPYLSKILEDSVWNGNRSIVFDVYWDVKSVSTKSEWRLCSVKFSTKNFCLFLRLPNPFCDNLKDLYRFFASKFVTFVGVQIQEDLALLKENHGIVIRSSLEIGKLAAKARGTPIVEFLGTRELAHKILWYDMSRLDSIQSKWDEASSNDRLEAAAIEGWLIFNVYDQLQQ | failed
MASIEQVAELISSLEQATLMAQQIGTTVGQNQLLQISSLRIAHQRLSAFLASIPTAEAEKSFSSVEPMQLGEEEKGEAEPAEEERYSAIEKVEEKMRECFIRNKRLKRPLSPSSAVVETSATEERSGRDYGFDSDPHATKLRALDLIYQFHA | failed
MASISATLYELCEAVDHPVPTRDRDVEAVFAEIEFDAIEFCPIEFVILPIGDWLDIFGDKIVLSEPFESAVDCRLRDPGAVAELCRRARLLFRLDENRARTLVTEQVCECFRISHVGHCKRAISWFVNIGCAVLGFLSGFSQRSHKKLPSISALTFRVRMSNRQTRTPTSVLLPTVSWTAACDDVAAQLGPEDELLIIHDSKDDPVVDRKPLSENVQFIPAGDPVGCSGKANAIAAGMEAANHDRLVWTDDDFHHPPDWLDRLHKDYAEYGPTTELPAFVGQDPLAVLLEPVYVLGGTLGTYMGDHAWGGAVIFDRSALDEERFLSELRQTISDDGLLGEHISVTSVQRVRRVPMGGSLRQTLERHIRFNQIFSTHDPTVAKLSFGVLVAVLIGCVFFPLLAVVLTVLTAGVSASFGVRRASLLLTVPALVAAVPLGLYAFARDTFVWGGRRYRWHSKFDVEVLNE | failed

Reference: a protein production outcome set (Wang et al. 2014)
